Reference: patent CN114829399A (dated 2022)

B1: MHC1694 - 1-18BA (antibody, V domains shown)
VH: QVTLKESGPGILQPSQTLSLTCSFSGFSLSTSTMGVGWIRQPSGKGLEWLLHILWNDSKYYNPALKSRLTISKDTYNKQVFLKIANVDTADTATYYCARIVYYSTYVGYFDVWGAGTTVTVSS
VL: DIQMTQSPSSLSASLGERVSLTCRASQEISGYLSWLQQKPDGTIKRLIYAASTLHSGVPKRFSGSRSGSDYSLTISRLESEDVADYYCLQYASYPFTFGSGTKLEIR
notes: Mouse monoclonal from hybridoma; Entries are called 'light chain' and 'heavy chain'; also called Ab1-18New
B2: MHC1692 - 1-23DA (antibody, V domains shown)
VH: QVTLKESGPGILQPSQTLSLTCSFSGFSLSTSTMGVGWIRQPSGKGLEWLLHILWNDSKYYNPALKSRLTISKDTYNKQVFLKIANVDTADTATYYCARIVYYSTYVGYFDVWGAGTTVTVSS
VL: DIQMTQSPSSLSASLGERVSLTCRASQEISGYLSWLQQKPDGTIKRLIYAASTLHSGVPKRFSGSRSGSDYSLTISRLESEDVADYYCLQYASYPFTFGSGTKLEIR
notes: Mouse monoclonal from hybridoma; also called Ab1-23DA
B3: MHC1693 - 3-16HA (antibody, V domains shown)
VH: EVQLQQSGAELVRPGALVKLSCKGSGFNIKDYYIHWVKQRPEQGLEWIGRIDPENDITMYDPKFQGKASITADTSSNTAYLQLSSLTSEDTAVYYCARNGNFFAYWGQGTLVTVSA
VL: not shown
notes: Mouse monoclonal from hybridoma; Entries are called 'light chain' and 'heavy chain'; also called Ab3-16HA

The binders below were run against T1, 人FLT3/FLK2受体蛋白 (human, UniProt P36888 27-993) (assay: flow cytometry EC curve on REH cells).
T1 construct: whole, on cells; Always presented on cells (REH/Reh endogenous); also called CD135; 人酪氨酸激酶受体FLT3/FLK2受体蛋白
T1 sequence (looked up): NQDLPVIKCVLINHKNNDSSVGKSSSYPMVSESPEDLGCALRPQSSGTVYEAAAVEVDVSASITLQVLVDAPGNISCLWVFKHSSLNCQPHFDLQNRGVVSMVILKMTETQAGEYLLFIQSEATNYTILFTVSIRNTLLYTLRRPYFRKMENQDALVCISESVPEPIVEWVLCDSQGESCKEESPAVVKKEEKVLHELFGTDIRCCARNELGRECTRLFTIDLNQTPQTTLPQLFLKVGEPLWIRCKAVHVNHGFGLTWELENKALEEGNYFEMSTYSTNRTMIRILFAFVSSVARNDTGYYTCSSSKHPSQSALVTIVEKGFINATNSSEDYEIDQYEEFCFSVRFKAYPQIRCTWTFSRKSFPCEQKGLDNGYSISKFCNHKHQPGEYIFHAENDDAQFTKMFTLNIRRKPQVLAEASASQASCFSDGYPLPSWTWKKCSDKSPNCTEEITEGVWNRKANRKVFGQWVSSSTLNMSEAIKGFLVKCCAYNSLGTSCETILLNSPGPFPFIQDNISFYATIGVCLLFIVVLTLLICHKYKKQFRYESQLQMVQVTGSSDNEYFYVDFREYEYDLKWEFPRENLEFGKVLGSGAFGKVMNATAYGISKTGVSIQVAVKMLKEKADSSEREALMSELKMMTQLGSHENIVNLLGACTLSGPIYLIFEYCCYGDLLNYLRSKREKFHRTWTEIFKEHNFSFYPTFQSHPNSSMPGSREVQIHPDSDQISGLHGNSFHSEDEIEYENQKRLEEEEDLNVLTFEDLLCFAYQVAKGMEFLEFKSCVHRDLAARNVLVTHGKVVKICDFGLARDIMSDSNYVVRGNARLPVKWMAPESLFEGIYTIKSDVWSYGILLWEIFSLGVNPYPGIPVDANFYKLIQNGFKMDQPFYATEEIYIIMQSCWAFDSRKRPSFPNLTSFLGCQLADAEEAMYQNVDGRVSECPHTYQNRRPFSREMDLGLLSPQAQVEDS

Binding result, binds:
B1
B2
B3
